Data on two molecules can be found in patent US20140356384A1 (COLE POLYTECHNIQUE F D RALE DE LAUSANNE EPFL, published 2014).

Test [1] has as its target T1, mouse glycophorin-A (GYPA) on the erythrocyte membrane (mouse, UniProt P14220 1-168). The test is described as follows: equilibrium binding to mouse erythrocytes by flow cytometry, one-site binding fit. (In general: A flow cytometer gives signals particle by particle.)
Test [2] deals with T1, mouse glycophorin-A (GYPA) on the …. In words: flow cytometry of mouse erythrocytes incubated with the OVA conjugate, OVA detected on the cell surface.

B1: ERY1-OVA (ERY1 peptide chemically conjugated to ovalbumin through SMCC) (other)
peptide: WMVLPWLPGTLDGGSGCRG
chain: GSIGAASMEFCFDVFKELKVHHANENIFYCPIAIMSALAMVYLGAKDSTRTQINKVVRFDKLPGFGDSIEAQCGTSVNVHSSLRDILNQITKPNDVYSFSLASRLYAEERYPILPEYLQCVKELYRGGLEPINFQTAADQARELINSWVESQTNGIIRNVLQPSSVDSQTAMVLVNAIVFKGLWEKAFKDEDTQAMPFRVTEQESKPVQMMYQIGLFRVASMASEKMKILELPFASGTMSMLVLLPDEVSGLEQLESIINFEKLTEWTSSNVMEERKIKVYLPRMKMEEKYNLTSVLMAMGITDVFSSSANLSGISSAESLKISQAVHAAHAEINEAGREVVGSAEAGVDAASVSEEFRADHPFLFCIKHIATNAVLFFGRCVSP
modifications: lysine side chains carry SMCC linked to the cysteine of the ERY1 peptide; C-terminal amide (CONH2); cysteine side chain conjugated through SMCC to lysine side chains of OVA
notes: also called ERY1-conjugated protein
Broadly, the Kd is the free concentration of one partner at which half of the binding sites on the other are occupied at equilibrium, for simple one-to-one binding. Low readings indicate tighter binding, high ones weaker binding. In turn, B1 yielded a Kd in test [1] of 6.2 nM.

B2: MIS-OVA (OVA conjugated with the mismatch peptide through SMCC) (other)
peptide: PLLTVGMDLWPWGGSGCRG
chain: GSIGAASMEFCFDVFKELKVHHANENIFYCPIAIMSALAMVYLGAKDSTRTQINKVVRFDKLPGFGDSIEAQCGTSVNVHSSLRDILNQITKPNDVYSFSLASRLYAEERYPILPEYLQCVKELYRGGLEPINFQTAADQARELINSWVESQTNGIIRNVLQPSSVDSQTAMVLVNAIVFKGLWEKAFKDEDTQAMPFRVTEQESKPVQMMYQIGLFRVASMASEKMKILELPFASGTMSMLVLLPDEVSGLEQLESIINFEKLTEWTSSNVMEERKIKVYLPRMKMEEKYNLTSVLMAMGITDVFSSSANLSGISSAESLKISQAVHAAHAEINEAGREVVGSAEAGVDAASVSEEFRADHPFLFCIKHIATNAVLFFGRCVSP
modifications: lysine side chains carry SMCC linked to the cysteine of the MIS peptide; C-terminal amide (CONH2); cysteine side chain conjugated through SMCC to lysine side chains of OVA
On to B2, for which the binding result in test [2] was “no binding”.
